# Starred links: 1 amine or outer side, 2 acyl side, 3 side chain; linkers in the order of their positions; H or OH if unused. Positions of bridges follow the written chain, without caps; N, C: chain ends. Non-standard residues stand in square brackets, D forms with d. No end group written: not given here. Yde = (2S)-2-amino-3-[4-[2-(dimethylamino)ethoxy]phenyl]propanoic acid, CN(C)CCOc1ccc(C[C@H](N[*:1])C(=O)[*:2])cc1; Phe(4-OMe) = COc1ccc(C[C@H](N[*:1])C(=O)[*:2])cc1; Trp(7-Me) = Cc1cccc2c(C[C@H](N)C(=O)O)c[nH]c12; 2Nal = N[C@@H](Cc1ccc2ccccc2c1)C(=O)O; AEF = NCCOc1ccc(C[C@H](N)C(=O)O)cc1; 3Pal = N[C@@H](Cc1cccnc1)C(=O)O; Dad = desamino-aspartamic acid; αMeL = CC(C)C[C@](C)(N)C(=O)O; Nmapt = not defined here; Thp = NC1(C(=O)O)CCOCC1; Aib = CC(C)(N)C(=O)O; Ahx = NCCCCCC(=O)O; Ava = NCCCCC(=O)O; Sar = CNCC(=O)O
# T1: IL-23 receptor on the surface of HEK-Blue IL-23 cells (UniProt Q5VWK5 24-629, limits assumed)
# T1 sequence (looked up): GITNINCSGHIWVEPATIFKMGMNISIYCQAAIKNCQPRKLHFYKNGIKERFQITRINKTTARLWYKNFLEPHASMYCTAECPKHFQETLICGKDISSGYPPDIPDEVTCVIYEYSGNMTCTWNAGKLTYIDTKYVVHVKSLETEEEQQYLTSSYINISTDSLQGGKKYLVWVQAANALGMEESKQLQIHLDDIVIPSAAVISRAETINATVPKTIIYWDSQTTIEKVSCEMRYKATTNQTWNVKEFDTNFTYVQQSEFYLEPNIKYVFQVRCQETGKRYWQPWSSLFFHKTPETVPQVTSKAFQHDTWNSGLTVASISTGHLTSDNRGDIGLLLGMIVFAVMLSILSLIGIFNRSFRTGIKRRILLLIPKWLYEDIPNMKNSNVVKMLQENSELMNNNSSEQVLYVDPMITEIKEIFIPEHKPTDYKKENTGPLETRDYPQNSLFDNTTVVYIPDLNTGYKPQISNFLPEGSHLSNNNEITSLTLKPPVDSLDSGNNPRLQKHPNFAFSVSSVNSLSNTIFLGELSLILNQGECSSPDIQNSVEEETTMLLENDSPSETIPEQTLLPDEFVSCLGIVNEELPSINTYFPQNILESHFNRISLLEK
# B1: Compound of SEQ ID NO: 24 (peptide)
# peptide: [Ava]CNT[Trp(7-Me)]LC[Yde][2Nal][Thp]EN[3Pal][Sar]-NH2
# modifications: lactam N-11; disulfide 2-7
# SMILES: Cc1cccc2c(C[C@@H]3NC(=O)[C@H]([C@@H](C)O)NC(=O)[C@H](CC(N)=O)NC(=O)[C@@H]4CSSC[C@H](NC(=O)[C@H](CC(C)C)NC3=O)C(=O)N[C@@H](Cc3ccc(OCCN(C)C)cc3)C(=O)N[C@@H](Cc3ccc5ccccc5c3)C(=O)NC3(CCOCC3)C(=O)N[C@H](C(=O)N[C@@H](CC(N)=O)C(=O)N[C@@H](Cc3cccnc3)C(=O)N(C)CC(N)=O)CCC(=O)NCCCCC(=O)N4)c[nH]c12
# B2: Compound of SEQ ID NO: 19 (peptide)
# peptide: [Nmapt]CKWQC[AEF][2Nal][Aib]EA[dL]-NH2
# modifications: lactam N-10; disulfide 2-6; not fully specified (residue 3); printed as Nmapt(§1)-C(§3)(@2)-K[aAc](@3)-W-Q-C(@2)-Yae-Nal-Aib-E(§1)-A-(D-Leu)-NH2; reading uncertain; also: K3 acetylated (K[aAc]), acetyl site not given here, ε-NH2 takes the Cys2 bond
# B3: Compound of SEQ ID NO: 20 (peptide)
# peptide: [Ava]CNT[Trp(7-Me)]K(Ac)C[Yde][2Nal][Aib]ENH-NH2
# modifications: lactam N-11; disulfide 2-7
# SMILES: CC(=O)NCCCC[C@@H]1NC(=O)[C@H](Cc2c[nH]c3c(C)cccc23)NC(=O)[C@H]([C@@H](C)O)NC(=O)[C@H](CC(N)=O)NC(=O)[C@@H]2CSSC[C@H](NC1=O)C(=O)N[C@@H](Cc1ccc(OCCN(C)C)cc1)C(=O)N[C@@H](Cc1ccc3ccccc3c1)C(=O)NC(C)(C)C(=O)N[C@H](C(=O)N[C@@H](CC(N)=O)C(=O)N[C@@H](Cc1c[nH]cn1)C(N)=O)CCC(=O)NCCCCC(=O)N2
# B4: Compound of SEQ ID NO: 11 (peptide)
# peptide: [Dad]CNTWQC[Phe(4-OMe)][2Nal][Aib]KNN-NH2
# modifications: lactam (positions not given here); disulfide 2-7; not fully specified (bridges); printed as Dad(§1)-C(@2)-N-T-W-Q-C(@2)-Yme-Nal-Aib-K(§1)-N—N—NH2
# B5: Compound of SEQ ID NO: 17 (peptide)
# peptide: [Nmapt]CKWQC[AEF][2Nal][Thp]EAG-NH2
# modifications: lactam N-10; disulfide 2-6; not fully specified (residue 3); printed as Nmapt(§1)-C(§3)(@2)-K[aAc](@3)-W-Q-C(@2)-Yae-Nal-Thp-E(§1)-A-G-NH2; reading uncertain; also: K3 acetylated (K[aAc]), acetyl site not given here, ε-NH2 takes the Cys2 bond
# B6: Compound of SEQ ID NO: 15 (peptide)
# peptide: [Nmapt]CKWQC[AEF][2Nal][Aib]ENG-NH2
# modifications: lactam N-10; disulfide 2-6; not fully specified (residue 3); printed as Nmapt(§1)-C(§3)(@2)-K[aAc](@3)-W-Q-C(@2)-Yae-Nal-Aib-E(§1)-N-G-NH2; reading uncertain; also: K3 acetylated (K[aAc]), acetyl site not given here, ε-NH2 takes the Cys2 bond
# B7: Compound of SEQ ID NO: 2 (peptide)
# peptide: [Ahx]CNTWQC[Phe(4-OMe)][2Nal][Aib]ENN-NH2
# modifications: lactam N-11; disulfide 2-7
# SMILES: COc1ccc(C[C@@H]2NC(=O)[C@@H]3CSSC[C@H](NC(=O)CCCCCNC(=O)CC[C@@H](C(=O)N[C@@H](CC(N)=O)C(=O)N[C@@H](CC(N)=O)C(N)=O)NC(=O)C(C)(C)NC(=O)[C@H](Cc4ccc5ccccc5c4)NC2=O)C(=O)N[C@@H](CC(N)=O)C(=O)N[C@@H]([C@@H](C)O)C(=O)N[C@@H](Cc2c[nH]c4ccccc24)C(=O)N[C@@H](CCC(N)=O)C(=O)N3)cc1
# B8: Compound of SEQ ID NO: 14 (peptide)
# peptide: [Nmapt]CKWQC[AEF][2Nal][αMeL]ENN-NH2
# modifications: lactam N-10; disulfide 2-6; not fully specified (residue 3); printed as Nmapt(§1)-C(§3)(@2)-K[aAc](@3)-W-Q-C(@2)-Yae-Nal-Mle-E(§1)-N—N—NH2; reading uncertain; also: K[aAc]: Cys2 bonded to epsilon-NH2 of acetylated Lys3, acetyl presumably on alpha-amine
# B9: Compound of SEQ ID NO: 23 (peptide)
# peptide: [Dad]CNT[Trp(7-Me)]K(Ac)C[Yde][2Nal][αMeL]KNH-NH2
# modifications: lactam N-11; disulfide 2-7
# B10: Compound of SEQ ID NO: 21 (peptide)
# peptide: [Ava]CNT[Trp(7-Me)]K(Ac)C[Yde][2Nal][Thp]ENH-NH2
# modifications: lactam N-11; disulfide 2-7
# SMILES: CC(=O)NCCCC[C@@H]1NC(=O)[C@H](Cc2c[nH]c3c(C)cccc23)NC(=O)[C@H]([C@@H](C)O)NC(=O)[C@H](CC(N)=O)NC(=O)[C@@H]2CSSC[C@H](NC1=O)C(=O)N[C@@H](Cc1ccc(OCCN(C)C)cc1)C(=O)N[C@@H](Cc1ccc3ccccc3c1)C(=O)NC1(CCOCC1)C(=O)N[C@H](C(=O)N[C@@H](CC(N)=O)C(=O)N[C@@H](Cc1c[nH]cn1)C(N)=O)CCC(=O)NCCCCC(=O)N2
# B11: Compound of SEQ ID NO: 12 (peptide)
# peptide: [Nmapt]CKWQC[AEF][2Nal][Aib]ENN-NH2
# modifications: lactam N-10; disulfide 2-6; not fully specified (residue 3); printed as Nmapt(§1)-C(§3)(@2)-K[aAc](@3)-W-Q-C(@2)-Yae-Nal-Aib-E(§1)-N—N—NH2; reading uncertain; also: K[aAc]: Cys2 bonded to epsilon-NH2 of acetylated Lys3, acetyl presumably on alpha-amine
# B12: Compound of SEQ ID NO: 13 (peptide)
# peptide: [Nmapt]CKWQC[AEF][2Nal][Thp]ENN-NH2
# modifications: lactam N-10; disulfide 2-6; not fully specified (residue 3); printed as Nmapt(§1)-C(§3)(@2)-K[aAc](@3)-W-Q-C(@2)-Yae-Nal-Thp-E(§1)-N—N—NH2; reading uncertain; also: K[aAc]: Cys2 bonded to epsilon-NH2 of acetylated Lys3, acetyl presumably on alpha-amine
# B13: Compound of SEQ ID NO: 18 (peptide)
# peptide: [Nmapt]CKWQC[AEF][2Nal][αMeL]EAG-NH2
# modifications: lactam N-10; disulfide 2-6; not fully specified (residue 3); printed as Nmapt(§1)-C(§3)(@2)-K[aAc](@3)-W-Q-C(@2)-Yae-Nal-Mle-E(§1)-A-G-NH2; reading uncertain; also: K3 acetylated (K[aAc]), acetyl site not given here, ε-NH2 takes the Cys2 bond
# B14: Compound of SEQ ID NO: 16 (peptide)
# peptide: [Nmapt]CKWQC[AEF][2Nal][Thp]ENG-NH2
# modifications: lactam N-10; disulfide 2-6; not fully specified (residue 3); printed as Nmapt(§1)-C(§3)(@2)-K[aAc](@3)-W-Q-C(@2)-Yae-Nal-Thp-E(§1)-N-G-NH2; reading uncertain; also: K3 acetylated (K[aAc]), acetyl site not given here, ε-NH2 takes the Cys2 bond
# B15: Compound of SEQ ID NO: 10 (peptide)
# peptide: [Ava]CNTWQC[Yde][2Nal][αMeL]EN[dL]-NH2
# modifications: lactam N-11; disulfide 2-7
# SMILES: CC(C)C[C@@H](NC(=O)[C@H](CC(N)=O)NC(=O)[C@@H]1CCC(=O)NCCCCC(=O)N[C@H]2CSSC[C@H](NC(=O)[C@H](CCC(N)=O)NC(=O)[C@H](Cc3c[nH]c4ccccc34)NC(=O)[C@H]([C@@H](C)O)NC(=O)[C@H](CC(N)=O)NC2=O)C(=O)N[C@@H](Cc2ccc(OCCN(C)C)cc2)C(=O)N[C@@H](Cc2ccc3ccccc3c2)C(=O)N[C@@](C)(CC(C)C)C(=O)N1)C(N)=O
# B16: Compound of SEQ ID NO: 22 (peptide)
# peptide: [Ava]CNT[Trp(7-Me)]K(Ac)C[Yde][2Nal][αMeL]ENH-NH2
# modifications: lactam N-11; disulfide 2-7
# SMILES: CC(=O)NCCCC[C@@H]1NC(=O)[C@H](Cc2c[nH]c3c(C)cccc23)NC(=O)[C@H]([C@@H](C)O)NC(=O)[C@H](CC(N)=O)NC(=O)[C@@H]2CSSC[C@H](NC1=O)C(=O)N[C@@H](Cc1ccc(OCCN(C)C)cc1)C(=O)N[C@@H](Cc1ccc3ccccc3c1)C(=O)N[C@@](C)(CC(C)C)C(=O)N[C@H](C(=O)N[C@@H](CC(N)=O)C(=O)N[C@@H](Cc1c[nH]cn1)C(N)=O)CCC(=O)NCCCCC(=O)N2
# Biological target: T1, IL-23 receptor on the surface of …
# Assay: cell-based or functional assay
row,Binder,pSTAT3 (nM)
1,B1,0.59
2,B2,88.3
3,B3,3.12
4,B4,53.5
5,B5,62
6,B6,29.2
7,B7,54
8,B8,18.7
9,B9,3.32
10,B10,2.67
11,B11,27.9
12,B12,32
13,B13,69.5
14,B14,32.1
15,B15,25.8
16,B16,1.37
